# T1: recombinant SH3P2 (human, UniProt Q92882 1-214)
# T1 sequence (looked up): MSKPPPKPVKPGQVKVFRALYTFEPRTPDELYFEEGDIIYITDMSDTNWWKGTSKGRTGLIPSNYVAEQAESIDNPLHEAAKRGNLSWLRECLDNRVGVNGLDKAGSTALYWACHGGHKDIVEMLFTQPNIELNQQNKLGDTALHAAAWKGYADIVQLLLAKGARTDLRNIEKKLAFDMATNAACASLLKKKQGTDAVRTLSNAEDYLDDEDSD
# B1: GST-Myo1E(SH3) (domain or fragment, human, UniProt Q12965 1039-1108, looked up)
# chain: AGGRPKPQPKPKPQVPQCKALYAYDAQDTDELSFNANDIIDIIKEDPSGWWTGRLRGKQGLFPNNYVTKI
# How the values were obtained:
# Myo1E (myosin 1E) = Myo1E (myosin 1E) (UniProt Q12965); assay: reciprocal co-IP of endogenous proteins, immunoblot; conditions: sites S202
# recombinant SH3P2 = molecular target: T1, recombinant SH3P2; assay: pull-down
molecule,measurement,setting,value
"SH3P2 (from UniProt Q92882) 10 µM PD184352, 4 h",other: % of lysate Myo1E associated with SH3P2,Myo1E (myosin 1E); reference: untreated cells,stronger; reference 6.1 ± 2.1
"SH3P2 (from UniProt Q92882) 10% FBS, 10 min",other: % of lysate Myo1E associated with SH3P2,Myo1E (myosin 1E); reference: serum-deprived cells,weaker; reference 78.4 ± 6.8
B1,binding result,recombinant SH3P2,binds
